Assay results published in patent US20110008302A1, “Compositions and methods for immortalizing cells and screening for anti-cancer agents” (priority 2007, published 2011).

Test system: MEFs
Assay: Stimulation of serum-starved MEFs with growth factors or serum (Ezh2, Ndy1, miR-101 levels)
Format: cell-based, mouse
Settings: serum-starved MEFs, 24 hours after stimulation
Method: MEFs were transfected with control siRNA and stimulated with serum (10%) for 1, 4, 12 and 18 hours. (upper) Nuclear extracts were probed with antibody specific for Ezh2 and for CREB, levels of which served as loading control. (lower) Ndy1 and Ezh2 mRNA levels were measured with real time RT-PCR; GAPDH mRNA levels were used as internal control. Data are expressed as mean±SD.
Serum starved MEFs were stimulated with each of FGF-2 (20 ng/ml), IGF-1 (20 ng/ml), PDGF (20 ng/ml), serum (10%), VEGF (20 ng/ml), EGF (20 ng/ml) or TNFα (50 ng/ml). Nuclear extracts were probed with antibody specific for Ezh2 and for CREB, levels of which served as loading control.
Data are expressed as mean±SD.
MEFs transfected with control siRNA were stimulated with FGF-2 for 1, 4, 12 or 18 hours. (upper) Nuclear extracts were probed with antibody specific for Ezh2. CREB levels served as loading control. (middle) Ndy1 and Ezh2 mRNA were measured with real time RT-PCR; GAPDH mRNA levels were used as internal control. Data are expressed as mean±SD. (lower) miR-101 levels were measured with real time RT-PCR; U6 small nuclear RNA levels were used as internal control. Data are expressed as mean±SD. […]

B1: EGF: growth factor, R&D systems (protein, UniProt P01133 23-1207, looked up)
Pro-epidermal growth factor: PQHWSCPEGTLAGNGNSTCVGPAPFLIFSHGNSIFRIDTEGTNYEQLVVDAGVSVIMDFHYNEKRIYWVDLERQLLQRVFLNGSRQERVCNIEKNVSGMAINWINEEVIWSNQQEGIITVTDMKGNNSHILLSALKYPANVAVDPVERFIFWSSEVAGSLYRADLDGVGVKALLETSEKITAVSLDVLDKRLFWIQYNREGSNSLICSCDYDGGSVHISKHPTQHNLFAMSLFGDRIFYSTWKMKTIWIANKHTGKDMVRINLHSSFVPLGELKVVHPLAQPKAEDDTWEPEQKLCKLRKGNCSSTVCGQDLQSHLCMCAEGYALSRDRKYCEDVNECAFWNHGCTLGCKNTPGSYYCTCPVGFVLLPDGKRCHQLVSCPRNVSECSHDCVLTSEGPLCFCPEGSVLERDGKTCSGCSSPDNGGCSQLCVPLSPVSWECDCFPGYDLQLDEKSCAASGPQPFLLFANSQDIRHMHFDGTDYGTLLSQQMGMVYALDHDPVENKIYFAHTALKWIERANMDGSQRERLIEEGVDVPEGLAVDWIGRRFYWTDRGKSLIGRSDLNGKRSKIITKENISQPRGIAVHPMAKRLFWTDTGINPRIESSSLQGLGRLVIASSDLIWPSGITIDFLTDKLYWCDAKQSVIEMANLDGSKRRRLTQNDVGHPFAVAVFEDYVWFSDWAMPSVMRVNKRTGKDRVRLQGSMLKPSSLVVVHPLAKPGADPCLYQNGGCEHICKKRLGTAWCSCREGFMKASDGKTCLALDGHQLLAGGEVDLKNQVTPLDILSKTRVSEDNITESQHMLVAEIMVSDQDDCAPVGCSMYARCISEGEDATCQCLKGFAGDGKLCSDIDECEMGVPVCPPASSKCINTEGGYVCRCSEGYQGDGIHCLDIDECQLGEHSCGENASCTNTEGGYTCMCAGRLSEPGLICPDSTPPPHLREDDHHYSVRNSDSECPLSHDGYCLHDGVCMYIEALDKYACNCVVGYIGERCQYRDLKWWELRHAGHGQQQKVIVVAVCVVVLVMLLLLSLWGAHYYRTQKLLSKNPKNPYEESSRDVRSRRPADTEDGMSSCPQPWFVVIKEHQDLKNGGQPVAGEDGQAADGSMQPTSWRQEPQLCGMGTEQGCWIPVSSDKGSCPQVMERSFHMPSYGTQTLEGGVEKPHSLLSANPLWQQRALDPPHQMELTQ
modifications: Pro-epidermal growth factor
notes: growth factor, R&D systems
With B1 the “level at which Ezh2 expression is induced” value was “at both the RNA and protein levels” and the Ezh2 expression (20 ng/ml (serum 10%)) was “significantly upregulated”.
